Measurements as given in patent publication US20120065123A1, “Synthetic Antibodies” (priority 2009, published 2012).
Blank lines part the entries; values can stand above or below the binder they belong to. Where no end group is shown, it is not given here.

Tests used:
transferrin [1] = experiment: peptide microarray, rank by score; with organic prewash
transferrin [2] = experiment: peptide microarray, rank by score; no organic prewash
transferrin [3] = experiment: SPR steady state, Biacore T100, transferrin immobilised
[4] = target: Tumor Necrosis Factor-alpha (TNF-α); experiment: SPR equilibrium, Biacore A100, TNF-α captured on chip
[5] = target: Tumor Necrosis Factor-alpha (TNF-α); experiment: SPR equilibrium; against the TNF1 lead
[6] = target: Tumor Necrosis Factor-alpha (TNF-α); experiment: SPR screen at 50 µM peptide, Biacore A100
transferrin [7] = experiment: SPR kinetics, transferrin immobilised
transferrin [8] = experiment: SPR steady state affinity model, Biacore T100, transferrin immobilised (9758 RU)
transferrin [9] = experiment: SPR steady state
transferrin [10] = experiment: against the TRF26 lead
transferrin [11] = experiment: affinity characterization of the peptide; method not named
transferrin [12] = experiment: as above; remark: listed apart in the source
[13] = target: Tumor Necrosis Factor-alpha (TNF-α); experiment: from SPR dissociation constants
transferrin [14] = experiment: peptide microarray of about 10,000 peptides, rank by score (555 nm intensity squared over 647 nm intensity); no organic prewash
[15] = target: Tumor Necrosis Factor-alpha (TNF-α); experiment: SPR kinetic fits of several sensorgrams
[16] = target: Tumor Necrosis Factor-alpha (TNF-α); experiment: fluorescence anisotropy
[17] = target: Tumor Necrosis Factor-alpha (TNF-α); experiment: SPR kinetic fits of sensorgrams

T100 sequence (P02787 20-698): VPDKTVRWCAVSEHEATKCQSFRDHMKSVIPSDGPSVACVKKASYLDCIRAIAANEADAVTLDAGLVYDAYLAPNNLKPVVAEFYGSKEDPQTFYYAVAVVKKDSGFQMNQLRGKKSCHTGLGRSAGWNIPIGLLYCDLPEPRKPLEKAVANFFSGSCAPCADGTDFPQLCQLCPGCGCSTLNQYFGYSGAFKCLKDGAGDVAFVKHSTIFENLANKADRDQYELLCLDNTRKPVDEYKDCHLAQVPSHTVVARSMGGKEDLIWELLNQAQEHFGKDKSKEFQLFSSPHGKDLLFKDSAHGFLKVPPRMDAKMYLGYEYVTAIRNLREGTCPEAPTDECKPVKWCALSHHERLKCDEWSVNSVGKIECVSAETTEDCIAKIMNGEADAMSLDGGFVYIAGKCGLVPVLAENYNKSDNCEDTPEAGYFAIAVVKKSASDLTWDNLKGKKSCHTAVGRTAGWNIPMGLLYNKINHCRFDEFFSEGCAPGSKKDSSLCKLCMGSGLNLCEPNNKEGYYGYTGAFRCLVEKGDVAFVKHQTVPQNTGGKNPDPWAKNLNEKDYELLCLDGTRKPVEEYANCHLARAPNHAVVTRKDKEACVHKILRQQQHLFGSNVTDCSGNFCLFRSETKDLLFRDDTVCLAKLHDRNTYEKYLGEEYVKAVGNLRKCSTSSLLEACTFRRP
Chain of Tumor Necrosis Factor-alpha (TNF-α) (P01375 77-233): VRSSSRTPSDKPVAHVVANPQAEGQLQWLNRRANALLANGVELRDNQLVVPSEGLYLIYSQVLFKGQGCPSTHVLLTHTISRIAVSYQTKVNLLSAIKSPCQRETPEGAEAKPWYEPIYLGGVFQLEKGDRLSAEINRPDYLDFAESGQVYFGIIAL

Binder: FERDPLMMPWKFLQSRQGSC (modifications not checked) [TNF1 S11K point-mutant]
Binding ΔG [4]: -6.03 kcal/mol | Kd [4]: 40 µM | Component Binding ΔG Contribution [5]: -0.82 kcal/mol | Kd Fold-Change Relative to Lead [5]: 3.9 fold | fold enhancement in SPR binding response relative to TNF1 [6]: > 15 fold

Binder: AHKVVPQRQMRHAYSRYGSC [TBPM023]
Kd (transferrin [8]): 11.6 µM | fold improvement of affinity against the original peptide TRF26 (transferrin [9]): > 10 fold

Binder: AHKVVYQRQIRHAYNRYGSC [TRF26 P6Y point-mutant]
Component Binding ΔG Contribution (transferrin [10]): -1.37 kcal/mol | Kd Fold-Change Relative to Lead (transferrin [10]): 10 fold | Binding ΔG (transferrin [11]): -6.93 kcal/mol | Kd (transferrin [11]): 8.6 µM

Binder: HAYKGPGDMRRFNHSGMGSC [TRF22]
Rank -- prewash (transferrin [1]): 61 rank | Rank - non-prewash (transferrin [2]): 711 rank

Binder: FERSYLMMPWKFLQSRQGSC (modifications not checked) [TNF1 D4S+P5Y+S11K triple mutant]
Binding ΔG (observed) [4]: -7.03 kcal/mol | Kd [4]: 7 µM | Kd Fold-Change Relative to Lead [5]: 23 fold | difference in observed binding energy against the P5Y+S11K mutant [13]: -0.72 kcal/mol

Binder: FERYPLKMPWSFLQSRQGSC (modifications not checked) [TNF1 D4Y+M7K double mutant]
Binding ΔG (observed) [4]: -6.54 kcal/mol | Kd [4]: 17 µM | Kd Fold-Change Relative to Lead [5]: 9.4 fold

Binder: FERDYLMMPWKFLQSRQGSC (modifications not checked) [TNF1 P5Y+S11K double mutant]
Binding ΔG (observed) [4]: -6.63 kcal/mol | Kd [4]: 24 µM | Kd Fold-Change Relative to Lead [5]: 6.6 fold

Binder: FERYPLMMPWKFLQSRQGSC (modifications not checked) [TNF1 D4Y+S11K double mutant]
Binding ΔG (observed) [4]: -6.67 kcal/mol | Kd [4]: 9.3 µM | Kd Fold-Change Relative to Lead [5]: 17 fold

Binder: FERSYLKMPWKFLQSRQGSC (modifications not checked) [TNF1-opt (D4S+P5Y+M7K+S11K quadruple mutant of TNF1)]
Kd [15]: 0.7 µM | Binding ΔG (observed) [4]: -7.97 kcal/mol | Kd [4]: 1.6 µM | Kd Fold-Change Relative to Lead [5]: 100 fold | Kd [16]: 1.1 µM | koff [17]: 0.2 s⁻¹ | difference in observed binding energy against the D4S+P5Y+S11K mutant [13]: -0.94 kcal/mol | difference in observed binding energy against the P5Y+M7K mutant [13]: -1.73 kcal/mol | difference in observed binding energy against the P5Y+S11K mutant [13]: -1.66 kcal/mol

Binder: FERYPLMMPWSFLQSRQGSC (modifications not checked) [TNF1 D4Y point-mutant]
Binding ΔG [4]: -5.95 kcal/mol | Kd [4]: 44 µM | Component Binding ΔG Contribution [5]: -0.74 kcal/mol | Kd Fold-Change Relative to Lead [5]: 3.6 fold | fold enhancement in SPR binding response relative to TNF1 [6]: > 15 fold

Binder: GHKVVPQRQIRHAYNRYGSC [TBPL005]
Kd (transferrin [8]): 150 µM

Binder: FERDYLMMPWSFLQSRQGSC (modifications not checked) [TNF1 P5Y point-mutant]
Binding ΔG [4]: -5.79 kcal/mol | Kd [4]: 58 µM | Component Binding ΔG Contribution [5]: -0.58 kcal/mol | Kd Fold-Change Relative to Lead [5]: 2.7 fold | fold enhancement in SPR binding response relative to TNF1 [6]: > 15 fold

Binder: SVKPWRPLLTGNRWLNSGSC [TRF24]
Rank -- prewash (transferrin [1]): 958 rank | Rank - non-prewash (transferrin [2]): 71 rank | Kd (transferrin [3]): 50 µM

Binder: FERDPLKMPWSFLQSRQGSC (modifications not checked) [TNF1 M7K point-mutant]
Binding ΔG [4]: -5.93 kcal/mol | Kd [4]: 57 µM | Component Binding ΔG Contribution [5]: -0.72 kcal/mol | Kd Fold-Change Relative to Lead [5]: 2.8 fold | fold enhancement in SPR binding response relative to TNF1 [6]: > 15 fold

Binder: FERDYLKMPWSFLQSRQGSC (modifications not checked) [TNF1 P5Y+M7K double mutant]
Binding ΔG (observed) [4]: -6.24 kcal/mol | Kd [4]: 27 µM | Kd Fold-Change Relative to Lead [5]: 5.8 fold

Binder: FERSYLKMPWSFLQSRQGSC (modifications not checked) [TNF1 D4S+P5Y+M7K triple mutant]
Binding ΔG (observed) [4]: -6.63 kcal/mol | Kd [4]: 14 µM | Kd Fold-Change Relative to Lead [5]: 11 fold

Further lines, results first:

Rank -- prewash (transferrin [1]): 2090 rank | Rank - non-prewash (transferrin [2]): 2720 rank | Kd (transferrin [3]): 50 µM
Binder: FRGWAHIFFGPHVIYRGGSC [TRF23]

Kd (transferrin [7]): 0.15 µM
B1: synbody comprising TRF-26 and TRF-23 (Example 9) (designed binder)
peptide 1: AHKVVPQRQIRHAYNRYGSG
peptide 2: FRGWAHIFFGPHVIYRGGSG
modifications: not fully specified (bridges); also: both C-termini joined to the alpha and epsilon amines of a lysine linker

Component Binding ΔG Contribution (transferrin [10]): -1.29 kcal/mol | Kd Fold-Change Relative to Lead (transferrin [10]): 8.8 fold | Binding ΔG (transferrin [11]): -6.85 kcal/mol | Kd (transferrin [11]): 9.7 µM | Kd (transferrin [12]): 9.8 µM
Binder: AHKVVPQRQIRFAYNRYGSC [TRF26 H12F point-mutant]

Rank -- prewash (transferrin [1]): 603 rank | Rank - non-prewash (transferrin [2]): 736 rank | Kd (transferrin [3]): 60 µM
Binder: APYAPQQIHYWSTLGFKGSC [TRF25]

Rank -- prewash (transferrin [1]): 9600 rank | Rank - non-prewash (transferrin [14]): 5010 rank | Kd (transferrin [3]): 150 µM
Binder: KEDNPGYSSEQDYNKLDGSC [TRF19]

Rank -- prewash (transferrin [1]): 5 rank | Rank - non-prewash (transferrin [2]): 84 rank | Kd (transferrin [3]): 60 µM
Binder: QYHHFMNLKRQGRAQAYGSC [TRF21]

Rank -- prewash (transferrin [1]): 3320 rank | Rank - non-prewash (transferrin [2]): 1290 rank
Binder: LDPLFNTSIMVNWHRWMGSC [TRF27]

Kd (transferrin [8]): 150 µM
Binder: GHKVVPQRQMRHAYNRNGSC [TBPL025]

Rank -- prewash (transferrin [1]): 289 rank | Rank - non-prewash (transferrin [2]): 18 rank
Binder: GQTQFAMHRFQQWYKIKGSC [TRF20]

Kd Fold-Change Relative to Lead (transferrin [10]): 190 fold | Binding ΔG (observed) (transferrin [11]): -8.68 kcal/mol | Kd (transferrin [11]): 0.5 µM
Binder: AHKVVYQRQIRFAYNRYGSC [TRF26 P6Y+H12F double mutant]

Rank -- prewash (transferrin [1]): 436 rank | Binding ΔG (transferrin [11]): -5.56 kcal/mol | Kd (transferrin [11]): 85 µM | Rank - non-prewash (transferrin [2]): 596 rank | Kd (transferrin [3]): 100 µM
Binder: AHKVVPQRQIRHAYNRYGSC [TRF26]
